Test results from patent US20050215629.

T1: synthetic phosphotyrosine peptide Arg-Arg-Leu-Ile-Glu-Asp-Ala-Glu-Tyr-Ala-Ala-Arg-Gly, wherein the tyrosine is phosphorylated
T1 chain: RRLIEDAEYAARG


Target: T1, synthetic phosphotyrosine peptide …

Row | Protein | immunocomplex PTPase assay (anti-Flag immunocomplexes from NIH3T3 transfectants) | immunocomplex PTPase assay (anti-Flag immunocomplexes from WM9 transfectants) | in vitro PTPase assay
1 | Flag-tagged PRL-1 (protein) MARMNRPAPVEVTYKNMRFLITHNPTNATLNKFIEELKKYGVTTIVRVCEATYDTTLVEKEGIHVLDWPFDDGAPPSNQIVDDWLSLVKIKFREEPGCCIAVHCVAGLGRAPVLVALALIEGGMKYEDAVQFIRQKRRGAFNSKQLLYLEKYRPKMRLRFKDSNGHRNNCCIQ | a markedly higher PTPase activity (about 23 folds) over that of control transfectants | showed phosphatase activities well above the background activity of the vector control cells | 
2 | Flag-tagged PRL-1R86 mutant (protein) MARMNRPAPVEVTYKNMRFLITHNPTNATLNKFIEELKKYGVTTIVRVCEATYDTTLVEKEGIHVLDWPFDDGAPPSNQIVDDWLRLVKIKFREEPGCCIAVHCVAGLGRAPVLVALALIEGGMKYEDAVQFIRQKRRGAFNSKQLLYLEKYRPKMRLRFKDSNGHRNNCCIQ |  | showed phosphatase activities well above the background activity of the vector control cells | 
3 | GST fusion protein of PRL-1R86 (protein) MARMNRPAPVEVTYKNMRFLITHNPTNATLNKFIEELKKYGVTTIVRVCEATYDTTLVEKEGIHVLDWPFDDGAPPSNQIVDDWLRLVKIKFREEPGCCIAVHCVAGLGRAPVLVALALIEGGMKYEDAVQFIRQKRRGAFNSKQLLYLEKYRPKMRLRFKDSNGHRNNCCIQ |  |  | showed in vitro PTPase activity similar to that of wild type PRL-1
4 | GST fusion protein of human PRL-1 (protein) MARMNRPAPVEVTYKNMRFLITHNPTNATLNKFIEELKKYGVTTIVRVCEATYDTTLVEKEGIHVLDWPFDDGAPPSNQIVDDWLSLVKIKFREEPGCCIAVHCVAGLGRAPVLVALALIEGGMKYEDAVQFIRQKRRGAFNSKQLLYLEKYRPKMRLRFKDSNGHRNNCCIQ |  |  | PTPase activity of recombinant PRL-1, PRL-2 and PRL-3 in dephosphorylating a synthetic phosphotyrosine peptide substrate
5 | GST fusion protein of human PRL-2 (protein) MNRPAPVEISYENMRFLITHNPTNATLNKFTEELKKYGVTTLVRVCDATYDKAPVEKEGIHVLDWPFDDGAPPPNQIVDDWLNLLKTKFREEPGCCVAVHCVAGLGRAPVLVALALIECGMKYEDAVQFIRQKRRGAFNSKQLLYLEKYRPKMRLRFRDTNGHCCVQ |  |  | PTPase activity of recombinant PRL-1, PRL-2 and PRL-3 in dephosphorylating a synthetic phosphotyrosine peptide substrate
